Experimental findings from publication PMC5554458 (Cellular signalling, 2017) are described below.

Usually Ki stands for a dissociation constant, usually derived from enzyme kinetics or from competition with a known ligand. A higher Ki goes with weaker binding.

Some targets named below: PDE6C-Y323N (human, UniProt P51160 1-858, Y323N); PDE6C-L858V (human, UniProt P51160 1-858, L858V, farnesyl on the Cys of the C-terminal CAAX box (farnesylated PDE6C-L858V)); PDE6C-H262N (human, UniProt P51160 1-858, H262N).
Common to all, as to assay: inhibition of enzyme activity

PDE6C-H262N, sequence (P51160 whole entry H262N): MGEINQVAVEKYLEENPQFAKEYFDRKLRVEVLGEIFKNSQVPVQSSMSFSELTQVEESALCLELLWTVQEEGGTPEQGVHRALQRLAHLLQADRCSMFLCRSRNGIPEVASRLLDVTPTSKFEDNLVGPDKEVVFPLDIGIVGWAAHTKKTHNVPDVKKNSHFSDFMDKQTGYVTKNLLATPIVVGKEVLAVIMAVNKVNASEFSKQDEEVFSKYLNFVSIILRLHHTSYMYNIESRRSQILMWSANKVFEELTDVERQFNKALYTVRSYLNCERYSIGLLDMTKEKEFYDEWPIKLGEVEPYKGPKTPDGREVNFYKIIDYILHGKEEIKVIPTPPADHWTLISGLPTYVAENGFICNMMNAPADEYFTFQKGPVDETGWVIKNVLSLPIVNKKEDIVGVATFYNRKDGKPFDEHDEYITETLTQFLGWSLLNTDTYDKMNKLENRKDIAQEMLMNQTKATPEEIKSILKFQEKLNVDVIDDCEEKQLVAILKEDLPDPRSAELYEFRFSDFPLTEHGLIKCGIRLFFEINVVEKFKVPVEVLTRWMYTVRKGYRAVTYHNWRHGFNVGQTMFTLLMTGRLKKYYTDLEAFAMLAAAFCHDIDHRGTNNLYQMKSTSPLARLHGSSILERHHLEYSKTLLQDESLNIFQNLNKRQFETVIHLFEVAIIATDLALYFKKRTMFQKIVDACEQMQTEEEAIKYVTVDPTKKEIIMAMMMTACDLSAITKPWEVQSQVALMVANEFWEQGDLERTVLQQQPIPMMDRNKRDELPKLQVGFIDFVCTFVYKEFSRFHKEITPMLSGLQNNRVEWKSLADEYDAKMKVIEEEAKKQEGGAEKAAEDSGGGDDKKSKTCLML
PDE6C-L858V, sequence (P51160 whole entry L858V): as the sequence (P51160 whole entry H262N) above, with N262H, L858V counted along it
PDE6C-Y323N, sequence (P51160 whole entry Y323N): as the sequence (P51160 whole entry H262N) above, with N262H, Y323N counted along it

B1: bovine rod Pγ (natural protein, UniProt P04972 1-87, looked up)
chain: MNLEPPKAEIRSATRVMGGPVTPRKGPPKFKQRQTRQFKSKPPKKGVQGFGDDIPGMEGLGTDITVICPWEAFNHLELHELAQYGII
As for B1, the Ki with PDE6C-Y323N was found to be 0.176 nM; with PDE6C-L858V, 0.114 nM; with PDE6C-H262N it was 0.222 nM.
